{"source": "paper PMC9063849", "about": "“Crystal structure of the middle and C-terminal domains of Hsp90α labeled with a coumarin derivative reveals a potential allosteric binding site as a drug target” (Acta Crystallographica. Section D, Structural Biology, 2022)", "proteins": {"B1": {"name": "Hsp90α_293–699 (Hsp90αMC), middle and C-terminal domains of human Hsp90α (domain or fragment)", "chain": "not shown", "notes": "Hsp90α (90 kDa heat-shock protein alpha), human, residues 293-699 (middle and C-terminal domains); TEV site between the tag and the protein; also called Hsp90α MD and CTD; apo Hsp90αMC; source: E. coli, purified (Ni-NTA, TEV cleavage, second Ni-NTA, size-exclusion chromatography); not shown: 6xHis, N-terminal, cleaved"}, "B2": {"name": "Hsp90α_23–699_E47A (FL Hsp90α) (domain or fragment)", "chain": "not shown", "notes": "Hsp90α, human, residues 23-699 with E47A; N-terminal truncation (printed as Δ23) and C-terminal tail removed; also called full-length (FL) Hsp90α; source: E. coli, purified (same procedure as for Hsp90αMC); not shown: 6xHis, N-terminal, cleaved"}, "B3": {"name": "Hsp90α_433–696 (Hsp90αC+) (domain or fragment)", "chain": "not shown", "notes": "Hsp90α, human, residues 433-696; The results speak of 'the CTD'; also called the CTD; source: E. coli, purified (same procedure as for Hsp90αMC); not shown: 6xHis, N-terminal, cleaved"}, "B4": {"name": "MDCC–Hsp90αMC (Hsp90α 293–699 covalently linked to MDCC at Cys374) (domain or fragment)", "chain": "not shown", "modifications": "MDCC {7-diethylamino-3-[N-(2-maleimidoethyl)carbamoyl]coumarin} covalently linked to Cys374", "notes": "Hsp90α, human, residues 293-699 (middle and C-terminal domains), labelled with MDCC at Cys374; Three molecules in the asymmetric unit; the hexamer is formed through crystallographic symmetry; also called MDCC-labeled Hsp90αMC; source: E. coli, purified; 0.2 mM Hsp90αMC incubated with 0.5 mM MDCC on ice for 30 min, supernatant used; not shown: 6xHis, N-terminal, cleaved"}}, "key": {"[1]": {"biological_target": "the molecule itself", "test": "dynamic light scattering; 3 mg/ml Hsp90αMC in 20 mM HEPES pH 7.2, 150 mM NaCl, 25°C; without or with 0.5 mM inhibitors (chlorobiocin, derrubone, coumermycin A1 or MDCC; 5% DMSO); dimers to hexamer"}, "[2]": {"biological_target": "the molecule itself", "test": "SEC; size-exclusion chromatography of the purified protein, 20 mM HEPES Na pH 7.2, 150 mM NaCl"}, "[3]": {"biological_target": "the molecule itself", "test": "SEC + other: dynamic light scattering; Hsp90αC+ at 1.0 mg/ml and FL Hsp90α at 2.1 mg/ml for DLS, 20 mM HEPES pH 7.2, 150 mM NaCl, 25°C; without inhibitors"}, "[4]": {"biological_target": "the molecule itself", "test": "crystal structure; MDCC-labelled Hsp90αMC crystallised in 0.1 M succinic acid pH 6.5, 12% PEG 3350, 20 mM calcium chloride; 3.5 Å; hexamer through crystallographic symmetry"}}}
{"protein": "B1", "values": [{"measurement": "stoichiometry N", "setting": "[1]", "value": 6}, {"measurement": "stoichiometry N", "setting": "[2]", "value": 2}]}
{"protein": "B2", "values": [{"measurement": "stoichiometry N", "setting": "[3]", "value": 6}]}
{"protein": "B3", "values": [{"measurement": "stoichiometry N", "setting": "[3]", "value": 4}]}
{"protein": "B4", "values": [{"measurement": "stoichiometry N", "setting": "[4]", "value": 6}]}
